In paper PMC9518701:
Read-outs that look alike come from different tables or passages of the source.

Key:
[1] = molecular target: SARS-CoV-2 spike protein receptor binding domain (RBD) (SARS-CoV-2, wild type (Wuhan-Hu-1 reference)) (UniProt P0DTC2); assay: SPR
[2] = molecular target: SARS-CoV-2 spike protein receptor binding domain (RBD) (SARS-CoV-2, wild type (Wuhan-Hu-1 reference)) (UniProt P0DTC2)
[3] = molecular target: SARS-CoV-2 spike protein receptor binding domain (RBD) (SARS-CoV-2) (UniProt P0DTC2)
[4] = molecular target: SARS-CoV-2 spike protein receptor binding domain (RBD) (SARS-CoV-2) (UniProt P0DTC2); remark: listed apart in the source
[5] = molecular target: SARS-CoV-2 spike protein receptor binding domain (RBD) (SARS-CoV-2) (UniProt P0DTC2); remark: listed apart in the source
[6] = molecular target: human neonatal Fc receptor (FcRn) (human) (UniProt P55899); assay: SPR; pH 6.0
Chain of human neonatal Fc receptor (FcRn) (human) (P55899 24-297, chain 1 of 2): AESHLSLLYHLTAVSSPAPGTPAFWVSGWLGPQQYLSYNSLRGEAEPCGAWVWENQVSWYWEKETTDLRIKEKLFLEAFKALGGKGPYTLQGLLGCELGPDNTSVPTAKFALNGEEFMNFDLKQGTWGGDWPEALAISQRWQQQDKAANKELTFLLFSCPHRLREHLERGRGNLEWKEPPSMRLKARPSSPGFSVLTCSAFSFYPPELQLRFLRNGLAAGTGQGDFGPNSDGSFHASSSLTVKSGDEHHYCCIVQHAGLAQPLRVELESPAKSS
Chain of human neonatal Fc receptor (FcRn) (human) (partner, as listed by the source, chain 2 of 2): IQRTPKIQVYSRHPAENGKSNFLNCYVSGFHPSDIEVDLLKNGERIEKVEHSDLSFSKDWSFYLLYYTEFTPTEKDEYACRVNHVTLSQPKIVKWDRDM

[7] = molecular target: FcγRIIb; assay: SPR
[8] = molecular target: FcγRIIa (R131); assay: SPR
[9] = molecular target: FcγRIIIa (V158); assay: SPR
[10] = molecular target: FcγRI; assay: SPR
[11] = molecular target: FcγRIIa (H131); assay: SPR
[12] = molecular target: FcγRIIIa (F158); assay: SPR

## amubarvimab (BRII-196) (antibody)
[1]
  Kd: 5.88 nM
[2]
  other: 0.026 µg/mL

## combination of amubarvimab and romlusevimab
[3]
  IC50: 16.4 nM
[4]
  other: 0.16 µg/mL
[5]
  other: 0.047 µg/mL

## romlusevimab (BRII-198)
[6]
  Kd: 0.36 nM
[7]
  Kd: 35300 nM
[8]
  Kd: 23700 nM
[9]
  Kd: 731 nM
[10]
  Kd: 2.77 nM
[11]
  Kd: 13200 nM
[12]
  Kd: 4450 nM
